According to the supplement of paper PMC9170038:

System: MS2 coat protein
Test: apparent KD of MS2 coat protein; designed switch direction (-1 OFF switch, 1 ON switch): 1; higher = weaker reporter binding
Outline: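 Each step of the titration lasted 0.8–1.5 h at the lowest concentration and 10–20 min at the highest. The protein, SNAP-549-labelled MS2 coat protein, went from 0.7 or 1.5 nM doubling to 3 µM over RNA switches transcribed on Illumina chips by stalled E. coli RNA polymerase. Normalised cluster fluorescence was curve-fitted, and the per-design median over clusters is given as apparent KD.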

[1] = input ligand: microRNA oligo, concentration not stated
[2] = Eterna round: R95, input ligand: microRNA oligo, concentration not stated
[3] = Eterna round: R95, input ligand: FMN 200 uM
[4] = Eterna round: R95, input ligand: none

| Sequence | apparent KD of MS2 coat protein (input ligand: FMN 200 uM) [nM] | apparent KD of MS2 coat protein [1] [nM] | apparent KD of MS2 coat protein (input ligand: none) [nM] | apparent KD of MS2 coat protein [2] [nM] | apparent KD of MS2 coat protein [3] [nM] | apparent KD of MS2 coat protein [4] [nM] |
| --- | --- | --- | --- | --- | --- | --- |
| CGAGAGUGCGUAGGAUAUCCGAAAGGAAGUGUAGGAGAAGGGCGGAACGCUCAUCGAAAACAUGAGGAUCACCCAUGUACAAAU [PowerStrip SSNG 1.17] (Eterna round: R96, puzzle: Same State NG 1) | 24.7 | 62.7 | 43.9 |  |  |  |
| CGGCGCUGUCGAGAGGAUAUGCGGUGAUGGACAUGAGGAUCACCCAUGUUAGCGAUAGCAUCACGGUAGAAGGCUCUACGGCUGC [Soteed Omei mod 19] (puzzle: Same State 2) |  |  |  | 9.83 |  |  |
| AUUAAACAUGAGGAUCACCCAUGUAUUAUUAUGGGAGGAUAUGCGAAUUUAAUUAAUUAAGCAGAAGGCCUAAUUA [Mat - Same State 1 - D102] (puzzle: Same State 1) |  |  |  | 98.3 | 18.7 | 141 |
| UUUAGUUGCGCGCAGGAUAUGUAUUAAUAUACAUGAGGAUCACCCAUGUGAGAUCGAAUAGAUCUGCAGAAGGGCGAAUCGCGAC [Laonerce - 27] (puzzle: Same State 2) |  |  |  | 361 | 52.7 | 772 |
| CGUCCAGCCUGAGCUGGACAAAAGCAUGUACAUGAGGAUCACCCAUGUUCAUGUACAAGCUUUUUGCUCGUCUUAGU [salish99_208a_r3_073] (puzzle: Sensor for hsa-mir-208a) |  |  |  | 14.5 | 557 | 646 |
| GGAGCCGACACUGAGGAUAUUCAUAUUAAAACAUGAGGAUCACCCAUGUAGGCCAGAAGGCCUUGGGAGAAGGCAGGUCGGCCCG [Bibimoar - 2] (puzzle: Same State 2) |  |  |  | 331 | 15.9 | 294 |
| AGUUGUGGAAAACUAUAGCAAAAGCAUGUACAUGAGGAUCACCCAUGUCAUGUACAAGCUUUUUGCUCGUCUUAUGG [ak 3 mod of one Eli's designs.] (puzzle: Sensor for hsa-mir-208a) |  |  |  | 13.9 | 25 | 50.3 |
| AGUCCAGCCUGAGCUGGACAAAGGCAUGUACAUGAGGAUCACCCAUGUUCAUGUACAAGCUUUUUGCUCGUCUUAAA [Zipper 52 - 1] (puzzle: Sensor for hsa-mir-208a) |  |  |  | 11.4 | 140 | 181 |
| GUUACAUGAGGAUCACCCAUGUAUGUGUGGGAGUAAGUGUCUUAGGAUAUCUAGUAUGUAAUUUAAGAGAAGGAAGAUUGUUGU [JMF's solution 56] (Eterna round: R96, puzzle: Same State NG 3) | 217 | 264 | 261 |  |  |  |
| AGCUAUCGCGUACGAUAGCUGAAGCAUGUACAUGAGGAUCACCCAUGUCAUGUACAGGCUUUUUGCUCGUCUUAUUG [JL-shm-2.27 JL mod] (puzzle: Sensor for hsa-mir-208a) |  |  |  | 16.4 | 770 | 625 |
| GCUCGCGACGCAGGAUAUGGGUGCCUGUACAUGAGGAUCACCCAUGUUAAGGGACGGAAAACGAACCAGAAGGGCGUCACGAGC [Ceusdian] (Eterna round: R96, puzzle: Same State NG 2) | 68.1 | 132 | 1120 |  |  |  |
| CUGUGUUGCGGGCAGGAUAUGUAUUGGGAUACAUGAGGAUCACCCAUGUGCGGGUGUUUCACCCGACAGAAGGGCCAAUCGCGAC [JL-ss2-3.22 ViennaUCT mod] (puzzle: Same State 2) |  |  |  | 370 | 200 | 472 |
| AGGUAACAUGAGGAUCACCCAUGUAAGGUGAACGUAGGAUAUCGAGGAGGUAGGGUAGGCCGAGAAGGACGAGGAG [JR_SS1_Sub093] (puzzle: Same State 1) |  |  |  | 221 |  |  |
| AGCUAUCGAAAACGAUAGCAAAAGCAUGUACAUGAGGAUCACCCAUGUCAUGUACAAGCUUUUUGCUCGUCUUGAAA [Zipper 23 - 9] (puzzle: Sensor for hsa-mir-208a) |  |  |  | 13 | 132 | 1390 |
| GAAGCGGCAGAAUAAAACAUGAGGAUCACCCAUGUCGCGGUUUAGGAUAUGGGACGGGUAUGAACCCAGAAGGAGACCGCAGGC [Eternabot solution 2] (Eterna round: R96, puzzle: Same State NG 3) | 32.7 | 33.8 | 56.2 |  |  |  |
| UUCUCUUUUUAGAGACAAGCUUUUUGAUCACAUGAGGAUCACCCAUGUCUCGUCUUAUGAUUUACUUCGUUAUUUCU [BA Sensor hsa-mir-208a - 2 - 6] (puzzle: Sensor for hsa-mir-208a) |  |  |  | 15.6 | 160 | 125 |
| AUUUAACAAGCUUUUUGCUCGUCUUAUAAACAUGAGGAUCACCCAUGUAAUAGCGUGAGAGUAAUUUAUUAAAUAAU [JMF 92] (puzzle: Sensor for hsa-mir-208a) |  |  |  | 41 | 15.6 | 15.6 |
| ACAUGAAAUUGAGGAUAUUUUGUACCUACAUGUGACAUGAGGAUCACCCAUGUGGUAAGUAUGAGAAAGAAGGCAAAGAUAUGU [Equivalence 11 - Jieux - Same State NG 2] (Eterna round: R96, puzzle: Same State NG 2) | 26.6 | 43.3 | 51 |  |  |  |
| UGAAUAGUUACAGGAUAUGAGUUGUAAAUUGGGUCAGAAGGGUGGGUGUUUUGCGCGGUGUGUUACAUGAGGAUCACCCAUGUU [SameState NG1 #28] (Eterna round: R96, puzzle: Same State NG 1) | 81.8 | 75.1 | 122 |  |  |  |
| GAGUGGUAGGGAGGAUAUGCAUUGUUAUUAAAUGCAGAAGGUUUUAACAUGAGGAUCACCCAUGUAGGACUAUUCCUGUGUUUC [Parity 67 - Jieux - Same State NG 1] (Eterna round: R96, puzzle: Same State NG 1) | 12.4 | 12.7 | 16.9 |  |  |  |
| GCUAGAAUAAAAGCCAACAUGAGGAUCACCCAUGUAUGUUGGCAGGAUAUCGUUUGCAAAGCAAACGAGAAGGGCCAUACUAGC [Mat - Same State NG 3 - JL Mod - D23] (Eterna round: R96, puzzle: Same State NG 3) | 45.1 | 109 | 117 |  |  |  |
| UACCAACAUAUAGAACAAGCGUGCUCGUCACAUGAGGAUCACCCAUGUCUAAGCGCUGAACCUGCAUCCUCAGCGCC [Oniste] (puzzle: Sensor for hsa-mir-208a) |  |  |  | 26.5 | 78.5 | 85.9 |
| UGUUGUAUUACAGGAUAUCUAUUAGGUUUAUUUAGAGAAGGGUAUUCACAUGAGGAUCACCCAUGUAUAUACGAGGAAGUUGUG [JMF's solution 87] (Eterna round: R96, puzzle: Same State NG 1) |  | 41.8 |  |  |  |  |
| GGAGCCGGCCUAGGAUAUUUCAUAAGAAAACAUGAGGAUCACCCAUGUAGGCCAGAAGGCCUUGGGAAGAAGGAGGUCGGCUCC [Loop Effect - G26] (Eterna round: R96, puzzle: Same State NG 2) | 11.2 | 19.7 | 35.1 |  |  |  |
